Measurements published in patent publication US9902783B2, “Antibodies and pharmaceutical compositions containing same useful for inhibiting activity of metalloproteins” (Yeda Research and Development Co. Ltd., priority 2007, dated 2018).
Several values for one entry are separate records, joined by “and”; a condition that tells them apart may be missing. Equal values may be shown once. Entries after “also recorded” stand apart in the source; their conditions may differ.

Assays:
MT1-MMP (MMP-14) = MT1-MMP (MMP-14) (Homo sapiens, UniProt P50281); assay: kinetic assay with fluorogenic peptide substrate, MT1-MMP; assay type: biochemical; details: for Ki: fit to competitive inhibition, fluorogenic peptide substrate
MT1 catalytic domain = assay: immuno affinity binding assay, MT1-MMP; details: purified enzyme
Description: MAbs (10 μg) were incubated with anti mouse IgG Agarose beads (Sigma) overnight at 4° C. in PBS. After washing unbound antibody, purified Pro-MMP-2, Pro-MMP-9 MMP-2 catalytic domain, MT1 catalytic domain or TACE (2 μg), were added following 2 h incubation at RT. The beads were collected by centrifugation and washed three times with PBS. The proteins that remained bound to the beads were eluted with SDS sample buffer, fractionated by SDS-PAGE, and detected by staining with Coomassie blue.

[1] = molecular target: T1, Alcohol Dehydrogenase (TbADH) (Thermoanaerobacter brockii, UniProt P14941); assay: functional inhibition experiment, alcohol dehydrogenase; assay type: biochemical, thermophilic bacterium; details: for inhibition of TbADH: in vitro functional inhibition
T1 sequence (P14941 1-352): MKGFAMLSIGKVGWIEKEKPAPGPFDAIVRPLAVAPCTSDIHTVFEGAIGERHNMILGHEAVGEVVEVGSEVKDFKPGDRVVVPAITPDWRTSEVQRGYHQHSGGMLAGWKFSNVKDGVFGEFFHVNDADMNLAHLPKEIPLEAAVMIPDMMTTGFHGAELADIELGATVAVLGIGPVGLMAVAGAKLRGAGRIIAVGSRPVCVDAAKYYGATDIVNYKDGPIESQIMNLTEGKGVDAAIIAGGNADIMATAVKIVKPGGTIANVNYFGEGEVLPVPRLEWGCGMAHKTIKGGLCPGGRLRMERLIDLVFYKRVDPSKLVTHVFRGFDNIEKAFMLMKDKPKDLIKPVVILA
Description: (§1) The selectivity of anti CoTCPP and anti Imisdp was further challenged, by testing their cross reactivity with non related zinc dependent enzymes—Carbonic Anhydrase (CA) and brockii alcohol dehydrogenase (TbADH). Similar to active MMPs CA contains a zinc ion that is tetrahedraly coordinated to three histidine residues and a water molecule, TbADH contains a catalytic zinc ion that is tetraheadrally coordinated to four different amino acid residues, histidine, cysteine, aspartate and glutamate. […] Anti CoTCPP mAb was also tested for its cross reactivity with related physiological porphyrins such as the Heme group within Myoglobin and Hemoglobin and vitamin.
(§2) 6C6 was also tested for cross reactivity with different zinc dependent metalloproteases, Carbonic Anhydrase and Alcohol Dehydrogenase. Analogous to MMPs, Carbonic Anhydrase (CA) has a catalytic zinc ion tetrahedraly coordinated to three histidine ligands and a water molecule. Consequently, several potent small molecule MMP inhibitors (of the sulfonylated amino acid hydroxamate type) also act as efficient CA inhibitors and vice versa. Some N-hydroxysulfonamides investigated previously as CA inhibitors also show inhibitory properties against MMPs [Scozzafava, A. and C. T. Supuran, J Med Chem, 2000. 43(20): p. 3677-87]. The active site of Alcohol Dehydrogenase from thermophilic bacterium (TbADH) includes a different zinc-protein moiety in which zinc is bound to histidine, cysteine, aspartate and glutamate located inside a crevice.

TACE (ADAM-17) = TACE (ADAM-17) (Homo sapiens, UniProt P78536); assay: kinetic assay with fluorogenic peptide QF-45, TACE; assay type: biochemical; details: for inhibitory effect toward TACE: in-vitro fluorescence enzymatic activity assay
[2] = molecular target: T2, brockii alcohol dehydrogenase (TbADH) (Thermoanaerobacter brockii, UniProt P14941); assay: immuno affinity binding experiment, alcohol dehydrogenase; set-up: species or system thermophilic bacterium
T2 sequence (P14941 1-352): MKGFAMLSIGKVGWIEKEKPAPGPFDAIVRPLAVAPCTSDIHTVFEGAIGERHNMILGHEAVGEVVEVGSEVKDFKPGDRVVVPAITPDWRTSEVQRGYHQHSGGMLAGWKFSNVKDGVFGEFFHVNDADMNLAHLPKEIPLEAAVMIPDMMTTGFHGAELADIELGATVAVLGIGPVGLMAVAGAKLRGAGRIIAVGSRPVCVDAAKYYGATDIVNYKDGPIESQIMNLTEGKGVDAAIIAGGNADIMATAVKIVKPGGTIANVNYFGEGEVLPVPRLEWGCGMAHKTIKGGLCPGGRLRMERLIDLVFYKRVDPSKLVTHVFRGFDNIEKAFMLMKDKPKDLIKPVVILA
Description: as §1

[3] = system: cell surface gelatinolytic activity of HT1080 cells; assay: in situ zymography with DQ-gelatin; assay type: cell-based, human
Description: To localize net gelatinolytic activity of MMPs by in situ zymography, fluorescein isothiocyanate-labeled DQ gelatin that is intramolecularly quenched (Molecular Probes) was used as a substrate for degradation by gelatinases. Proteolysis by gelatinases yields cleaved fluorescein isothiocyanate-gelatin peptides and the localization of this fluorescence indicates the sites of net gelatinolytic activity. Briefly, Human fibrosarcoma HT1080 cells (which produce MMP-2, MMP-9 and MT1-MMP) were plated on 12-mm coverslips. […] Untreated cells served as negative control for this experiment. Cells were washed with PBS and then incubated with zymography reaction buffer (0.05 M Tris-HCl, 0.15 M NaCl, 5 mM CaCl2, and 0.2 mM NaN3, pH 7.6, the high concentration of azide prevented the gelatin from being phagocytosed and thus allowing cell surface gelatinolytic activity to occur) containing 60 ug/ml DQ gelatin at 37° C. overnight. […] At the end of the incubation period, without fixation or further washes, gelatinolytic activity of the MMPs was localized and photographed by fluorescence microscopy and images were acquired by Spot digital camera.
To confirm the inhibitory activity of anti CoTCPP mAb at cellular level, the effect of the antibody was examined on gelatinolytic activity of human fibrosarcoma HT1080 cells that constitutively secrete MMP-2 and 9 by in situ zymography. To localize gelatinolytic activity of MMPs by in situ zymography, fluorescein isothiocyanate-labeled gelatin that is intramolecularly quenched (DQ-gelatin) was used as substrate. Proteolysis by gelatinases yields cleaved fluorescein isothiocyanate-gelatin peptides and the localization of this fluorescence indicates the sites of net gelatinolytic activity.

MMP-2 = assay: kinetic assay with fluorogenic peptide substrate, MMP-2; assay type: biochemical, human; details: for inhibition of proteolytic activity of MMP-2: continuous fluorometric assay
Carbonic Anhydrase (CA) [4] = assay: immuno affinity binding experiment, Carbonic Anhydrase
Description: as §1

[5] = competitive ELISA, affinity of mAbs toward their immunizing hapten; details: concentration of soluble hapten for 50% binding
Description: Supernatants of the growing hybridomas were screened for antibodies reactive with ZnTCPP, CoTCPP or Imisdp using direct ELISA in which respective hapten-BSA (3 μg/ml in PBS) was coated to Nunc maxisorp plates. The coating was performed at 4° C. overnight and incubation with antibodies at 20° C. for 1 h. HRP-conjugated anti-mouse mAb (Sigma) was used as the secondary antibody and 2,2′-azino-bis (3-ethylbenzthiazoline-6-sulphonic acid, ABTS, Sigma) was used as substrate. PBS containing 0.005% v/v Tween 20 (PBST) was used as washing reagent. The dilution buffer was PBS. A602 was recorded by microplate reader in […]luor Plus spectrometer (Tecan, Austria). As control supernatants were incubated with BSA coated plates in the same manner Absorbance values above 0.5 millioptical density were considered as positive.
Different dilutions of hybridoma supernatant were incubated with hapten-BSA coated plates following the steps described earlier. Titration curve was plotted and the titer dilution was determined at 50% of binding. Supernatants diluted to the titer concentration were preincubated with soluble ZnTCPP, CoTCPP or Imisdp compounds for 30 minutes and then transferred to hapten-coated microtiter plates following the steps described previously. The estimated dissociation constant was the concentration of soluble hapten required to attain 50% binding.

Carbonic Anhydrase (CA) [6] = assay: functional inhibition experiment, Carbonic Anhydrase; assay type: biochemical; details: for inhibition of Carbonic Anhydrase: in vitro functional inhibition
Description: as §1, §2

MMP-9 = assay: kinetic assay with fluorogenic peptide substrate, MMP-9; assay type: biochemical, human; details: for mode of inhibition of MMP-9: Lineweaver-Burk plot; for IC50: Table 4; for inhibition of proteolytic activity of MMP-9: continuous fluorometric assay
MMP-9, sequence (P14780 107-444 limits assumed): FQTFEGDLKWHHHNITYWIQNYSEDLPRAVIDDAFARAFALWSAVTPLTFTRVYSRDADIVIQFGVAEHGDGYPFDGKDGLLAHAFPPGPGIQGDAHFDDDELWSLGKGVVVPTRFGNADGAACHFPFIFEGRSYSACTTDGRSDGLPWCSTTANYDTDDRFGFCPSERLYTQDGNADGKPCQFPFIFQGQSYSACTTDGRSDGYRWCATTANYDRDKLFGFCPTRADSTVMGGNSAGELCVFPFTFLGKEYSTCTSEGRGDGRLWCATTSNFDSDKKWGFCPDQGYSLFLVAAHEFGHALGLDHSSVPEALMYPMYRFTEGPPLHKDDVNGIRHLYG

TACE (ADAM-17), sequence (P78536 215-824, species assumed): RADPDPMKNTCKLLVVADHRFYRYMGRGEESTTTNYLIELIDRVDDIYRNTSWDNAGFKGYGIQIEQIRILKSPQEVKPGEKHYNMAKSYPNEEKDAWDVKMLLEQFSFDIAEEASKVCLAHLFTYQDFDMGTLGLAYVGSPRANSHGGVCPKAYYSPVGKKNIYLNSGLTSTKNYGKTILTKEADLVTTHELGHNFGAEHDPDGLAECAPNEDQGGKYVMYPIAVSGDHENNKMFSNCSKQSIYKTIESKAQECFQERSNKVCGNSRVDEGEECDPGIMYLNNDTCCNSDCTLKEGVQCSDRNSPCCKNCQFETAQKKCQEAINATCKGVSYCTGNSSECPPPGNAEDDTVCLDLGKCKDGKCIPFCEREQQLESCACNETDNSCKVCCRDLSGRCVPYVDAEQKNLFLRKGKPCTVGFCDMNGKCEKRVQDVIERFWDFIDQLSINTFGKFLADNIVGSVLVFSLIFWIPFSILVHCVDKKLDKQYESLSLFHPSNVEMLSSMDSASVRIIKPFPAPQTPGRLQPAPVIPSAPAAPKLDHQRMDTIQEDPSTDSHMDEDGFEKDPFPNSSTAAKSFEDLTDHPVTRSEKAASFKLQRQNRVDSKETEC

B1: 13E11: monoclonal antibody, IgG2b, raised against the hapten CoTCPP (antibody, V domains shown)
VH: EGGGLVQPGGSRKLSCAASGFTFTSFGMHWVRQAPEKGLEWVAYISSGNEIIYYADTVKGRFTISRDNPKNTLFLQMTSLRSEDTAMYYCARNYYRYGFYVMDYWGQG
VL: EIVVTQSPAILSASPGEKVTMTCRASSSVSYMHWYQQKPGSSPKPWIYATSNELASGVPARFSGSGSGTSYSLTISRVEAEDAATYYCQQWISNPLTFGAG
modifications: 13E11 mAb heavy chain; 13E11 mAb light chain
notes: monoclonal antibody, IgG2b, raised against the hapten CoTCPP
- inhibitory effect toward MT1-MMP (MT1-MMP (MMP-14); in-vitro fluorescence enzymatic activity assay): no inhibitory effect
- binding to MT1-MMP (MT1 catalytic domain): no binding was detected
- inhibition of TbADH [1]: no binding or inhibition
- inhibitory effect toward TACE (TACE (ADAM-17)): no inhibitory effect
- binding to TbADH [2]: no binding
- cell surface gelatinase activity ([3]; 1 μM mAb, listed as anti CoTCPP mAb): reduced; also recorded: significantly inhibited
- inhibition of proteolytic activity of MMP-2 (MMP-2): inhibited
- binding to Carbonic Anhydrase (Carbonic Anhydrase (CA) [4]): no binding
- Kd [5]: 0.09 µM
- inhibition of Carbonic Anhydrase (Carbonic Anhydrase (CA) [6]): no binding or inhibition
- mode of inhibition of MMP-9 (MMP-9): competitive inhibitor
- IC50 (MMP-9): 15 ± 0.8 µM
- inhibition of proteolytic activity of MMP-9 (MMP-9): inhibited

B2: 6C6: monoclonal antibody, IgG2a, raised against the hapten Imisdp; MMP-2 and MMP-9 inhibitory; SEQ ID NO: 1 (protein)
chain: CMETTQTPLSLPVSLGDQASISCRSSQSIVHSNGNTFLEWYLQKPGQSPKLLIYKVSNCRFSGVPDRFSGSGSGTDFTLKISRVEAEDLGVYYCFQASHVPPTFGGG
modifications: 6c6 mAb light chain
- IC50 (MT1-MMP (MMP-14); Table 4): 14.4 ± 0.7 µM
- Ki (MT1-MMP (MMP-14)): 14.4 µM and 15 µM
- Ki (MT1-MMP (MMP-14); listed as anti Imisdp mAb): 10 µM
- inhibition of TbADH [1]: no binding or inhibition
- inhibitory effect toward TbADH ([1]; mAb concentrations up to 30 μM): no inhibitory effect
- IC50 (TACE (ADAM-17); Table 4): > 30 µM
- inhibitory effect toward TACE (TACE (ADAM-17)): did not display inhibitory effect
- inhibition of TACE (TACE (ADAM-17); mAb concentrations of up to 30 μM): neither MMP-7 nor TACE were inhibited to any measurable extent
- binding to TbADH [2]: no binding
- cell surface gelatinolytic activity ([3]; 5 μM mAb): significantly decreased; also recorded: significantly inhibited
- IC50 (MMP-2; Table 4): 3 ± 0.2 µM
- inhibition of proteolytic activity of MMP-2 (MMP-2): inhibited
- binding to Carbonic Anhydrase (Carbonic Anhydrase (CA) [4]): no binding
- Kd [5]: 0.09 µM
- inhibition of Carbonic Anhydrase (Carbonic Anhydrase (CA) [6]): no binding or inhibition
- inhibitory effect toward Carbonic Anhydrase (Carbonic Anhydrase (CA) [6]; mAb concentrations up to 30 μM): no inhibitory effect
- mode of inhibition of MMP-9 (MMP-9): competitive inhibition profile
- IC50 (MMP-9): 4.5 ± 0.2 µM
- inhibition of proteolytic activity of MMP-9 (MMP-9): inhibited
